Experimental data published in US20250186620A1 (DUKE UNIVERSITY, published 2025).

T1: human connexin36 (Cx36) (human, UniProt Q9UKL4 1-321)
T1 construct: whole, on cells; Hemichannel expressed in HEK 293FT cells for FETCH; also called GJD2; not shown: C-terminal fluorescent protein fusion (mEmerald or RFP670 in FETCH)
T1 sequence (looked up): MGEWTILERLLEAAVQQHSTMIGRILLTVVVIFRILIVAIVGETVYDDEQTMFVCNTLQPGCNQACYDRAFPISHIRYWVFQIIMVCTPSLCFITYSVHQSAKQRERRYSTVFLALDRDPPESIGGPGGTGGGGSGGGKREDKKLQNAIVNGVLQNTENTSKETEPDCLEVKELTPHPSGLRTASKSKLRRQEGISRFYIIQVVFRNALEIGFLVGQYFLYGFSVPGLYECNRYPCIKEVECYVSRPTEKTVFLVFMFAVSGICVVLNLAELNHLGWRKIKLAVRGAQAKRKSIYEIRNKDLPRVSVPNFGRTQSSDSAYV


What was measured:
[1] = target: the molecule itself; assay: homotypic FETCH screen
Description: (§1) Complete FETCH methodology is outlined in Ransey et. al. 2021 (Ransey E, et al. (2021) BioRxiv). Briefly, replica multi-well plates with HEK 293FT cells were transfected with either of the two connexin proteins being evaluated for docking. Following a transfection incubation period, experimental counterparts were combined, replated, and further incubated for about 20 hr to about 24 hrs, allowing cells to make contacts and potentially generate connexosomes. Co-plated samples were trypsinized, fixed in suspension and analyzed via flow cytometry. Flow cytometry data was processed with two selection gates prior to their fluorescence evaluation. First, putative HEK cells were identified by evaluating sample forward vs. side scatter area. Next, single cells were identified as the putative cells that maintained a linear correlation of forward scatter height to forward scatter area. Finally, the dual fluorescence (mEmerald vs. RFP670) profiles of each sample was generated, and the FETCH score was defined as the proportion of dual-labeled fluorescent cells that develop in a co-plated sample.
For screening analysis, five FETCH replicates were obtained for each condition (mutation). These scores were benchmarked against scores for Cx36 and Cx45 (FETCH=1.2±0.1%, n=54 replicates). To quantitatively determine whether a connexin pair docked, FETCH scores were determined for the dual fluorescence of cells under conditions where docking was not anticipated. These conditions included pairs of connexins previously established to not show docking: (i) Cx36 and Cx45 (FETCH=0.7±0.0%, n=59 replicates), (ii) homotypic Cx23 (FETCH=0.9±0.4%, n=6 previously collected replicates (Ransey E, et al. (2021) BioRxiv), and (iii) Cx36 and Cx43 (FETCH=1.2±0.2%, n=10 previously collected replicates (Ransey E, et al. (2021) BioRxiv), and under conditions for which cells were transfected with cytoplasmic fluorophores rather than tagged connexins (FETCH=4.4±0.6%, n=17 previously collected replicates (Ransey E, et al. (2021) BioRxiv).

[2] = target: T1, human connexin36 (Cx36); assay: FETCH (flow cytometry, % dual-labelled HEK 293FT cells), heterotypic
Description: as §1

[3] = target: T2, human connexin43 (Cx43) (human, UniProt P17302 2-382); assay: heterotypic FETCH
T2 construct: whole, on cells; Hemichannel expressed in HEK 293FT cells for FETCH; also called GJA1; not shown: C-terminal fluorescent protein fusion (mEmerald or RFP670 in FETCH)
Description: as §1

[4] = target: T2, human connexin43 (Cx43); assay: FETCH (flow cytometry, % dual-labelled HEK 293FT cells), heterotypic, n=6
Description: as §1

T2 sequence (P17302 2-382): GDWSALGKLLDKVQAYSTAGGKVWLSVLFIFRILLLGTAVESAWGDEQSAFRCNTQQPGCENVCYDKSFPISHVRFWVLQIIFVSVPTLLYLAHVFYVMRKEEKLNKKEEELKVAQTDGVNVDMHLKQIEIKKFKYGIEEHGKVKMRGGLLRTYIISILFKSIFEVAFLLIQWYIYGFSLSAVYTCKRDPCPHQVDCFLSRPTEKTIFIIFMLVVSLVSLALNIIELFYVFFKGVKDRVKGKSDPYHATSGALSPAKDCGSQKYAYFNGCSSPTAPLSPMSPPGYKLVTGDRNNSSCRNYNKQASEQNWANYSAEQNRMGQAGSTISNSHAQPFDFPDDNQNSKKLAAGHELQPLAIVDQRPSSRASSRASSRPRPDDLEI

Binder | binding result [1] | other results
Cx34.7 mutant Y78S (Morone americana) (other, Extracellular loop mutant of the screening library; also called Cx34.7 Y78S; not shown: C-terminal fluorescent protein fusion (mEmerald or RFP670 in FETCH)) MGEWTILERLLEAAVQQHSTMIGRILLTVVVIFRILIVAIVGETVYEDEQAMFICNTLQPGCNQACYDKAFPISHIRSWVFQIILVCTPSLCFITYSVHQSAKQKDRRYSFLYPIMERDYGGRDGARKLRNINGILVQHGGDGGGGKEEPDCLEVKEIPNAPRGLTHGKSSKVRRQEGISRFYIIQVVFRNALEIGFLAGQYFLYGFSVPGIFECDRYPCLKEVECYVSRPTEKTVFLVFMFAVSGICVVLNLAELNHLGWRKIKAAIRGVQARRKSICEIRKKDMAHLSQPPNLGRTQSSESAYV | no binding | 
Cx34.7 mutant E225K (Morone americana) (other, Extracellular loop mutant of the screening library; also called Cx34.7 E225K; not shown: C-terminal fluorescent protein fusion (mEmerald or RFP670 in FETCH)) MGEWTILERLLEAAVQQHSTMIGRILLTVVVIFRILIVAIVGETVYEDEQAMFICNTLQPGCNQACYDKAFPISHIRYWVFQIILVCTPSLCFITYSVHQSAKQKDRRYSFLYPIMERDYGGRDGARKLRNINGILVQHGGDGGGGKEEPDCLEVKEIPNAPRGLTHGKSSKVRRQEGISRFYIIQVVFRNALEIGFLAGQYFLYGFSVPGIFECDRYPCLKEVKCYVSRPTEKTVFLVFMFAVSGICVVLNLAELNHLGWRKIKAAIRGVQARRKSICEIRKKDMAHLSQPPNLGRTQSSESAYV | no binding | 
Cx34.7 mutant L238Y (Morone americana) (other, Extracellular loop mutant of the screening library; also called Cx34.7 L238Y; not shown: C-terminal fluorescent protein fusion (mEmerald or RFP670 in FETCH)) MGEWTILERLLEAAVQQHSTMIGRILLTVVVIFRILIVAIVGETVYEDEQAMFICNTLQPGCNQACYDKAFPISHIRYWVFQIILVCTPSLCFITYSVHQSAKQKDRRYSFLYPIMERDYGGRDGARKLRNINGILVQHGGDGGGGKEEPDCLEVKEIPNAPRGLTHGKSSKVRRQEGISRFYIIQVVFRNALEIGFLAGQYFLYGFSVPGIFECDRYPCLKEVECYVSRPTEKTVFYVFMFAVSGICVVLNLAELNHLGWRKIKAAIRGVQARRKSICEIRKKDMAHLSQPPNLGRTQSSESAYV | no binding | 
Cx34.7 mutant Y78T (Morone americana) (other, Extracellular loop mutant of the screening library; also called Cx34.7 Y78T; not shown: C-terminal fluorescent protein fusion (mEmerald or RFP670 in FETCH)) MGEWTILERLLEAAVQQHSTMIGRILLTVVVIFRILIVAIVGETVYEDEQAMFICNTLQPGCNQACYDKAFPISHIRTWVFQIILVCTPSLCFITYSVHQSAKQKDRRYSFLYPIMERDYGGRDGARKLRNINGILVQHGGDGGGGKEEPDCLEVKEIPNAPRGLTHGKSSKVRRQEGISRFYIIQVVFRNALEIGFLAGQYFLYGFSVPGIFECDRYPCLKEVECYVSRPTEKTVFLVFMFAVSGICVVLNLAELNHLGWRKIKAAIRGVQARRKSICEIRKKDMAHLSQPPNLGRTQSSESAYV | no binding | 
Cx34.7 mutant Y78V (Morone americana) (other, Extracellular loop mutant of the screening library; also called Cx34.7 Y78V; not shown: C-terminal fluorescent protein fusion (mEmerald or RFP670 in FETCH)) MGEWTILERLLEAAVQQHSTMIGRILLTVVVIFRILIVAIVGETVYEDEQAMFICNTLQPGCNQACYDKAFPISHIRVWVFQIILVCTPSLCFITYSVHQSAKQKDRRYSFLYPIMERDYGGRDGARKLRNINGILVQHGGDGGGGKEEPDCLEVKEIPNAPRGLTHGKSSKVRRQEGISRFYIIQVVFRNALEIGFLAGQYFLYGFSVPGIFECDRYPCLKEVECYVSRPTEKTVFLVFMFAVSGICVVLNLAELNHLGWRKIKAAIRGVQARRKSICEIRKKDMAHLSQPPNLGRTQSSESAYV | no binding | 
Cx34.7 mutant E225R (Morone americana) (other, Extracellular loop mutant of the screening library; also called Cx34.7 E225R; not shown: C-terminal fluorescent protein fusion (mEmerald or RFP670 in FETCH)) MGEWTILERLLEAAVQQHSTMIGRILLTVVVIFRILIVAIVGETVYEDEQAMFICNTLQPGCNQACYDKAFPISHIRYWVFQIILVCTPSLCFITYSVHQSAKQKDRRYSFLYPIMERDYGGRDGARKLRNINGILVQHGGDGGGGKEEPDCLEVKEIPNAPRGLTHGKSSKVRRQEGISRFYIIQVVFRNALEIGFLAGQYFLYGFSVPGIFECDRYPCLKEVRCYVSRPTEKTVFLVFMFAVSGICVVLNLAELNHLGWRKIKAAIRGVQARRKSICEIRKKDMAHLSQPPNLGRTQSSESAYV | no binding | 
Wild-type Connexin35 (Cx35) of Morone americana (other, Connexin hemichannel (hexamer) expressed in HEK 293FT cells; In C. elegans it was expressed as GFP or mCherry fusion; also called Cx35WT; not shown: C-terminal fluorescent protein fusion (mEmerald or RFP670 in FETCH)) MGEWTILERLLEAAVQQHSTMIGRILLTVVVIFRILIVAIVGETVYDDEQTMFVCNTLQPGCNQACYDKAFPISHIRYWVFQIIMVCTPSLCFITYSVHQSAKQKERRYSTVYLTLDKDQDSLKRDESKKIKNTIVNGVLQNTENSTKEAEPDCLEVKEIPNSAMRTTKSKMRRQEGISRFYIIQVVFRNALEIGFLVGQYFLYGFNVPSVYECDRYPCIKDVECYVSRPTEKTVFLVFMFAVSGFCVVLNLAELNHLGWRKIKTAVRGVQARRKSIYEIRNKDLPRMSVPNFGRTQSSDSAYV |  | FETCH score [2]: 18%
Cx35 mutant L237Y (Morone americana) (other, Extracellular loop mutant of the screening library; also called Cx35 L237Y; not shown: C-terminal fluorescent protein fusion (mEmerald or RFP670 in FETCH)) MGEWTILERLLEAAVQQHSTMIGRILLTVVVIFRILIVAIVGETVYDDEQTMFVCNTLQPGCNQACYDKAFPISHIRYWVFQIIMVCTPSLCFITYSVHQSAKQKERRYSTVYLTLDKDQDSLKRDESKKIKNTIVNGVLQNTENSTKEAEPDCLEVKEIPNSAMRTTKSKMRRQEGISRFYIIQVVFRNALEIGFLVGQYFLYGFNVPSVYECDRYPCIKDVECYVSRPTEKTVFYVFMFAVSGFCVVLNLAELNHLGWRKIKTAVRGVQARRKSIYEIRNKDLPRMSVPNFGRTQSSDSAYV | no binding | 
Cx35 mutant N56E (Morone americana) (other, Extracellular loop mutant of the screening library; also called Cx35 N56E; not shown: C-terminal fluorescent protein fusion (mEmerald or RFP670 in FETCH)) MGEWTILERLLEAAVQQHSTMIGRILLTVVVIFRILIVAIVGETVYDDEQTMFVCETLQPGCNQACYDKAFPISHIRYWVFQIIMVCTPSLCFITYSVHQSAKQKERRYSTVYLTLDKDQDSLKRDESKKIKNTIVNGVLQNTENSTKEAEPDCLEVKEIPNSAMRTTKSKMRRQEGISRFYIIQVVFRNALEIGFLVGQYFLYGFNVPSVYECDRYPCIKDVECYVSRPTEKTVFLVFMFAVSGFCVVLNLAELNHLGWRKIKTAVRGVQARRKSIYEIRNKDLPRMSVPNFGRTQSSDSAYV | no binding | 
Cx35 mutant Y78S (Morone americana) (other, Extracellular loop mutant of the screening library; also called Cx35 Y78S; not shown: C-terminal fluorescent protein fusion (mEmerald or RFP670 in FETCH)) MGEWTILERLLEAAVQQHSTMIGRILLTVVVIFRILIVAIVGETVYDDEQTMFVCNTLQPGCNQACYDKAFPISHIRSWVFQIIMVCTPSLCFITYSVHQSAKQKERRYSTVYLTLDKDQDSLKRDESKKIKNTIVNGVLQNTENSTKEAEPDCLEVKEIPNSAMRTTKSKMRRQEGISRFYIIQVVFRNALEIGFLVGQYFLYGFNVPSVYECDRYPCIKDVECYVSRPTEKTVFLVFMFAVSGFCVVLNLAELNHLGWRKIKTAVRGVQARRKSIYEIRNKDLPRMSVPNFGRTQSSDSAYV | no binding | 
Cx35 mutant Y78T (Morone americana) (other, Extracellular loop mutant of the screening library; also called Cx35 Y78T; not shown: C-terminal fluorescent protein fusion (mEmerald or RFP670 in FETCH)) MGEWTILERLLEAAVQQHSTMIGRILLTVVVIFRILIVAIVGETVYDDEQTMFVCNTLQPGCNQACYDKAFPISHIRTWVFQIIMVCTPSLCFITYSVHQSAKQKERRYSTVYLTLDKDQDSLKRDESKKIKNTIVNGVLQNTENSTKEAEPDCLEVKEIPNSAMRTTKSKMRRQEGISRFYIIQVVFRNALEIGFLVGQYFLYGFNVPSVYECDRYPCIKDVECYVSRPTEKTVFLVFMFAVSGFCVVLNLAELNHLGWRKIKTAVRGVQARRKSIYEIRNKDLPRMSVPNFGRTQSSDSAYV | no binding | 
Cx35E224H (Morone americana Cx35 mutant E224H) (other, Extracellular loop mutant of the screening library; not shown: C-terminal fluorescent protein fusion (mEmerald or RFP670 in FETCH)) MGEWTILERLLEAAVQQHSTMIGRILLTVVVIFRILIVAIVGETVYDDEQTMFVCNTLQPGCNQACYDKAFPISHIRYWVFQIIMVCTPSLCFITYSVHQSAKQKERRYSTVYLTLDKDQDSLKRDESKKIKNTIVNGVLQNTENSTKEAEPDCLEVKEIPNSAMRTTKSKMRRQEGISRFYIIQVVFRNALEIGFLVGQYFLYGFNVPSVYECDRYPCIKDVHCYVSRPTEKTVFLVFMFAVSGFCVVLNLAELNHLGWRKIKTAVRGVQARRKSIYEIRNKDLPRMSVPNFGRTQSSDSAYV | no binding | FETCH score [2]: 5.9%; binding result [3]: no binding; FETCH score [4]: 0.4%
Cx35 mutant Y78V (Morone americana) (other, Extracellular loop mutant of the screening library; also called Cx35 Y78V; not shown: C-terminal fluorescent protein fusion (mEmerald or RFP670 in FETCH)) MGEWTILERLLEAAVQQHSTMIGRILLTVVVIFRILIVAIVGETVYDDEQTMFVCNTLQPGCNQACYDKAFPISHIRVWVFQIIMVCTPSLCFITYSVHQSAKQKERRYSTVYLTLDKDQDSLKRDESKKIKNTIVNGVLQNTENSTKEAEPDCLEVKEIPNSAMRTTKSKMRRQEGISRFYIIQVVFRNALEIGFLVGQYFLYGFNVPSVYECDRYPCIKDVECYVSRPTEKTVFLVFMFAVSGFCVVLNLAELNHLGWRKIKTAVRGVQARRKSIYEIRNKDLPRMSVPNFGRTQSSDSAYV | no binding | 
